The results in this text go back to paper PMC10846153.

The data set concerns T1, OxyR (Reut_A2805) (Cupriavidus pinatubonensis), ORF:7651349a.
T1 sequence: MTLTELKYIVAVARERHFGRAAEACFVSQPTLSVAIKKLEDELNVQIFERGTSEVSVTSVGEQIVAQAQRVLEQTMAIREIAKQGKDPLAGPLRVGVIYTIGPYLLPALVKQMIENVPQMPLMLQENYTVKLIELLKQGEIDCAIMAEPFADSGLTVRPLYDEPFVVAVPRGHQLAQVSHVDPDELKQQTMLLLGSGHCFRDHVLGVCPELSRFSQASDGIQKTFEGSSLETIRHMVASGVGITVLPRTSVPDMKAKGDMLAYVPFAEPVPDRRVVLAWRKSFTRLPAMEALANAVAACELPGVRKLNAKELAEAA
Nature of the data set: EMSA. The settings on record: EMSA: 20 mM Tris pH 7.4, 4 mM MgCl2, 100 mM NaCl, 10% glycerol; 20 min at room temperature; 6% native PAGE with 5% glycerol in 0.5x TBE.

As for “AAATGCATCGCTCTCAGAATACCCAAAAATGAGCAATTCGATGCCATCGACTTTCGCGTTTCTGGCAACTTTGCGCGAACTGTAGAAAATACCGGATTACAGGTATTGTCCTGTCCAAGTCGCACAGCGTAAATTTCGCCTGACTTCCGTTGCGCAACCAACAGAAACACAAAGATT (double strand) [PT6SS1]”, the binding result is “binds”.
